Measurements as given in patent publication US20230270832A1, “MAGEA1 IMMUNOGENIC PEPTIDES, BINDING PROTEINS RECOGNIZING MAGEA1 IMMUNOGENIC PEPTIDES, AND USES THEREOF” (TScan Therapeutics, Inc., priority 2021, published 2023).

Tests used:
[1] = molecular target: T1, epitope from MAGEA1 presented by HLA C*07:02 (Homo sapiens, UniProt P10321+P43355, DEL298-309); experiment: Identification of MAGEA1-reactive TCRs from pool of TCR-transduced T cells (CD137/CD69 sorting, TCR sequencing); format: cell-based; settings: target cells transduced with MAGEA1 90-mer
T1 construct: an individual 90-amino acid fragments representing the top-scoring MAGEA1 tile from the screen; expressed in transfected cells; host or cells: MHC monoallelic C*07:02 HEK293T cells, lentivirally transduced with the MAGEA1 90-mer
Text: Ten orphan TCRs from this patient were pooled together to identify their cognate antigens using the genome-wide TargetScan technology. This screen identified MAGEA1 as a novel target. […] Note that the term “TCR32-39” may also be known as “TCR39” and the term “TCR32-41” may also be known as “TCR41”.
To identify the corresponding TCR from the pool of TCR-transduced T cells, Ml-IC monoallelic C*07:02 HEK293T cells engineered to express the MAGEA1 90mer were co-cultured with the pool of T cells at an E:T ratio of 1:1 for 16-24 hours. The T cells were mixed, collected by pipetting, and labeled with a CD137 microbead kit (Miltenyi) following the manufacturer's instructions. In brief, T cells were first stained with PE-labeled anti-CD137 and AF647-labeled anti-CD69 (BioLegend), washed, and then labeled with anti-PE microbeads. Labeled cells were enriched with an autoMACS® Pro separator (Miltenyi) and CD137 and CD69 double-positive cells were sorted on a MoFlo® Astrios™ Cell Sorter (Beckman Coulter). Genomic DNA was extracted from the sorted cells and the TCR expression cassette was PCR amplified and prepared for next generation sequencing (NGS).

[2] = tested on: cancer cells that express MAGEA1; experiment: T cell recognition assay on cancer cell lines; format: cell-based, human; settings: IFNγ release, CD137/CD69 double-positive staining
Description: To detect reactivity to cancer cell lines, wild-type cancer cell lines were seeded in a 96-well flat bottom plate and rested overnight at 37° C. in 5% CO2. On the following day, T cells were thawed, washed in complete RPMI-1640 medium, and added to the wells for an effector to target (E:T) ratio of 1:1 for INFγ measurement or 1:4 for flow cytometry analysis of activation-induced markers. The co-culture was incubated overnight. Cells were then harvested by pipetting, transferred to V-bottom 96-well plates, and centrifuged at 2,000 rpm for 2 minutes. The supernatant was collected for IFNγ measurement using a human IFNγ 3rd generation single-plex assay (Protein Simple). For flow cytometry analysis (Cytoflex S™ instrument, Beckman Coulter), cell pellets were washed with FACS buffer (PBS, 0.5% BSA, 2 mM EDTA) and stained for activation-induced markers, including PE-conjugated anti-CD137 (Miltenyi), AF647-conjugated anti-CD69 (Biolegend), and BV421-conjugated anti-CD8 (BioLegend).
Cancer cell lines were purchased from ATCC (Manassas, Vα.) and HEK293T cells were originally from Takara Bio (Shiga, Japan). All media were supplemented with […], except U266B1 which required 15% FBS, and 1% penicillin and incubated at 37° C. in 5% CO2. A101D (high MAGE-A1 expresing cells; TPM: 359), A2058 (medium MAGE-A1 expresing cells; TPM: 128), HS294T, and HEK293T cells were maintained in complete DMEM. SK-MEL-5 was cultured in complete EMEM, whereas U266B1, NCIH1437 and 786-0 required complete RPMI. Untransduced cancer cells were maintained in preparation for the T cell recognition assay, and 10^6 cells of each cell line were introduced with Incucyte® NucLight™ Red lentivirus reagent (Sartorius, Gottingen, Germany) Positively-labeled cells were selected using 1.5 ug/mL of puromycin over 72 hours.

B1: TCR 32-39: T cell receptor recognizing MAGEA1 epitope presented by HLA-C*07:02; alpha TRAV29-DV5/TRAJ43, beta TRBV18/TRBJ2-7; wild type, HM and MGTM sequences listed (protein)
TCR alpha: DQQVKQNSPSLSVQEGRISILNCDYTNSMFDYFLWYKKYPAEGPTFLISISSIKDKNEDGRFTVFLNKSAKHLSLHIVPSQPGDSAVYFCAASAQNNDMRFGAGTRLTVKPNIQNPEPAVYQLKDPRSQDSTLCLFTDFDSQINVPKTMESGTFITDKCVLDMKAMDSKSNGAIAWSNQTSFTCQDIFKETNATYPSSDVPCDATLTEKSFETDMNLNFQNLLVMVLRILLLKVAGFNLLMTLRLWSS
TCR beta: NAGVMQNPRHLVRRRGQEARLRCSPMKGHSHVYWYRQLPEEGLKFMVYLQKENIIDESGMPKERFSAEFPKEGPSILRIQQVVRGDSAAYFCASSPSYEQYFGPGTRLTVTEDLRNVTPPKVSLFEPSKAEIANKQKATLVCLARGFFPDHVELSWWVNGKEVHSGVCTDPQAYKESNYSYCLSSRLRVSATFWHNPRNHFRCQVQFHGLSEEDKWPEGSPKPVTQNISAEAWGRADCGITSASYQQGVLSATILYEILLGKATLYAVLVSTLVVMAMVKRKNS
recognition of MAGEA1 epitope / identification as MAGEA1-reactive TCR ([1]; listed as HN-32-39): recognizing the same novel epitope from MAGEA1 presented by HLA C*07:02
recognition of MAGEA1 epitope / identification as MAGEA1-reactive TCR ([1]; listed as TCR 39): hits
recognition of cancer cells [2]: recognize cancer cells that express MAGEA1
recognition of cancer cells ([2]; listed as TCR 39): recognize
